# From the supplement of paper PMC9170038
# System: K4 kissing-loop RNA reporter
# Assay: apparent KD of K4 kissing-loop reporter; higher = weaker reporter binding
# Details: Eterna round: R107
# Experimental: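 RNA-MaP round R107: designed RNA switches with theophylline, tryptophan, arginine or FMN aptamers are transcribed on-chip within common flanks. They are titrated with a labelled K4 kissing-loop RNA reporter in RNA-MaP buffer (100 mM Tris pH 7.5, 80 mM KCl, 4 mM MgCl2), without ligand or with the indicated ligand. Median apparent KD per design.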
# [1] = input ligand: theophylline 20 uM
# [2] = input ligand: tryptophan 2.4 mM
# 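Also: bound reporter read as fluorescence of individual clusters on recovered sequencing chips by microscopy, with normalized cluster intensities fitted with a binding model.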
Sequence,apparent KD of K4 kissing-loop reporter (input ligand: FMN 200 uM) [µM],apparent KD of K4 kissing-loop reporter (input ligand: arginine 13.2 mM) [µM],apparent KD of K4 kissing-loop reporter (input ligand: none) [µM],apparent KD of K4 kissing-loop reporter [1] [µM],apparent KD of K4 kissing-loop reporter [2] [µM]
UUAGAUCUUCUAGAUACCAGUCUGUGUAUCAAUGAUACACUUGACUGAGUGAUGUUCAGAGGCCCUUGGCAGCUAGAAGAUCAUU [AK1 SS Theophylline B],0.761,0.473,0.727,0.849,0.49
UGACUGGACUGAAGGAGCGCGCGAGACAAAGUCUCGAACUCUUAGUGAUGUUAAGAAAUAACGCAGGUAGGUCGCAGUCUAGUCU,0.138,0.122,0.147,0.133,0.15
AGCCGAAAGGCGAGUGCUGUCACUCCGGAAGGAGCGCUCAAAAGAGCAGGUAGGUCGCCGGAGUGAUGUUCCGGUGCAGCACUCA [Omei KL Arginine A Exc B v4],0.594,0.408,0.58,0.751,0.623
UUAGUUAGAUUAUUAUUAGCCUACAAUGCUAAGGAUAUCCGAAUUCGGAGAAGGUAGUGAUGUUACUUAAGUAGGCACUAACAUU [AK7 Exc FMN A],0.257,0.745,0.932,0.925,0.671
GGAAUAACCUGGGAUACCAGUCGGAGGACUAGGGAUCGGAGUGAUGUUCUGGGAUGUUUCGGCCCUUGGCAGCUCUGGUUUUCCG [#2 Exclusion - Theophylline B Attempt #1 (HarryS)],0.569,0.286,0.551,0.614,0.443
GGCUUGCUAGUGAUGUUAGCAUUUUCUGAAGGAGCGCGUGAAAACGCAGGUAGGUCGCAGAACCUUGCCAACUAUUUUAGUUGCC [Ex Arginine A K4 27],0.101,0.113,0.0943,0.0973,0.0824
UUAUCAUCAGCGGCCGCCACUGCAAAUUGGAGUGAUGUUCCAAGCGUGGAUAAUGAAAUCACUAGUAGGACCGGGUUGAUGAAUU [AK 1 Ex Trypt B],0.309,0.231,0.27,0.254,0.306
GCGCGGCAGGCGGCCGCCACUCUGACGAGCCACAGUGAUGUUGUGGUCGGAGAAACGUCUUCAUAGAGGACCGGGUUUGUUGUUC [Same State Typtophan A GF 25],0.215,0.186,0.226,0.189,0.177
ACGAUUUACAGAAGGAGCGUGUAUUUAACUACAAUUAUCAUAGCGAGUGAUGUUCGUUAUACACAGGUAGGUCGCUGUAUAUCGA [JR_ExcArginiB_Sub012],0.364,0.367,0.356,0.451,0.397
CGCGGCCGGCCGGAUACCAGUGACCCGCUGGAAACCGCGGGCCCAGAGUGAUGUUCGGGACACCCUUGGCAGCCGCCUGGGCGUG [#2 Same State - Theophylline B Attempt #2 (HarryS)],0.547,0.309,0.44,0.456,0.397
UAUACGAAGCAGUGAUGUUGCUUAUGAGAAGGAGCGCACGAAAGUGCAGGUAGGUCGCUCAGCCAUGUGGACGAAAACGUCCACA [whbob_SS_Arginine_A_sa110],0.108,0.13,0.109,0.137,0.093
AAGCGUAAAAUGGCGGACAUACUGCUCCCACGAGGACCGGUACGGCCGCCACUCGAGUGCGGCAGUGAUGUUGCCGCCUUAGCGU [KL-XTryp-A20],0.0929,0.0813,0.092,0.0803,0.0819
CUCGAGUGAUGUUCGAUUAUUUAUACAGAUACCAGUGAAUUUUAACACCCUUGGCAGCUGGUUGUAUCAUUGUUUUUUACAAAAG [JR_ExcTheophyA_Sub007],0.113,0.167,0.117,0.195,0.1
AGAGUACGAAAGUACUCCUCUACACACUGUCGAGGACCGGUACGGCCGCCACUCGAGUUGAGUGAUGUUCGAUAGUGUGUAGAGA [Omei KL Tryp A SS C v4],0.0664,0.0573,0.03,0.104,0.142
CGCUGGGCGAGUGAUGUUCGCUCACGUGAUACCAGUGCAAUCCAACACCCUUGGCAGCACGCGGGCAGUGAUGUUGUCCUUAGUG [Exclusion Theophylline A GF12],0.16,0.149,0.157,0.143,0.127
AGACUACCACACUGUCAAUAGACAGUGAACUAGGAUAUGCUGAUAAGCAGAAGGAGUGAUGUUCCUAAAGGUAGUCAAAUAUAAU [FmnAX 14 #SwitchBubble #StaticStem #K4Early],0.335,0.38,0.38,0.567,0.351
AAUAAGGUCGCCGAUACCAGCGCAGGCAGAGCAAAGCUCUGCCUAGUAGUGAUGUUACUGCGCCCUUGGCAGCGGUGGCACGACC [Omei KL Theo B SS C v4],0.863,0.824,0.93,0.397,0.798
